Assay results taken from PMC10397247.
Values belong to the binder of their own block, whether it stands above or below them.

How the values were obtained:
4H717-AA = target: T1, 4H717-AA; test: two-hybrid library CCmax; conditions: mean of both orientations;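 note: natural log of median RNA to DNA barcode read ratio; higher means stronger binding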
T1 chain: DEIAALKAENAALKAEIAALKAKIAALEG

4H678-AA = target: T2, 4H678-AA; test: two-hybrid library CCmax; conditions: mean of both orientations;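 note: natural log of median RNA to DNA barcode read ratio; higher means stronger binding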
T2 chain: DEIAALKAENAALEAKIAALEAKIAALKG

4H568-AA = target: T3, 4H568-AA; test: two-hybrid library CCmax; conditions: mean of both orientations;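 note: natural log of median RNA to DNA barcode read ratio; higher means stronger binding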
T3 chain: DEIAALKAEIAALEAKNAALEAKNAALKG

4H794-AA = target: T4, 4H794-AA; test: two-hybrid library CCmax; conditions: mean of both orientations;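 note: natural log of median RNA to DNA barcode read ratio; higher means stronger binding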
T4 chain: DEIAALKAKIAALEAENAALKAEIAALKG

4H993-AA = target: T5, 4H993-AA; test: two-hybrid library CCmax; conditions: mean of both orientations;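 note: natural log of median RNA to DNA barcode read ratio; higher means stronger binding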
T5 chain: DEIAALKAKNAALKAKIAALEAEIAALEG

4H967-AA = target: T6, 4H967-AA; test: two-hybrid library CCmax; conditions: mean of both orientations;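 note: natural log of median RNA to DNA barcode read ratio; higher means stronger binding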
T6 chain: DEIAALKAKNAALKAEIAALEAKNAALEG

4H881-AA = target: T7, 4H881-AA; test: two-hybrid library CCmax; conditions: mean of both orientations
T7 chain: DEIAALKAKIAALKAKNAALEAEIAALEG

4H605-AA = target: T8, 4H605-AA; test: two-hybrid library CCmax; conditions: mean of both orientations
T8 chain: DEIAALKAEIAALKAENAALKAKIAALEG

4H883-AA = target: T9, 4H883-AA; test: two-hybrid library CCmax; conditions: mean of both orientations
T9 chain: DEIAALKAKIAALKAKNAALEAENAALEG

4H3655-AA = target: T10, 4H3655-AA; test: two-hybrid library CCmax; conditions: mean of both orientations
T10 chain: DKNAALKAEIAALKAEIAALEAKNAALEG

4H3627-AA = target: T11, 4H3627-AA; test: two-hybrid library CCmax; conditions: mean of both orientations
T11 chain: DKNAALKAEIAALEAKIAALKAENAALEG

4H3844-AA = target: T12, 4H3844-AA; test: two-hybrid library CCmax; conditions: mean of both orientations
T12 chain: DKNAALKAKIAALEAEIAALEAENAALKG

4H687-AA = target: T13, 4H687-AA; test: two-hybrid library CCmax; conditions: mean of both orientations
T13 chain: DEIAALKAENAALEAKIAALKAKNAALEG

4H3921-AA = target: T14, 4H3921-AA; test: two-hybrid library CCmax; conditions: mean of both orientations
T14 chain: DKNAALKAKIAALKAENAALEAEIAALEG

4H4001-AA = target: T15, 4H4001-AA; test: two-hybrid library CCmax; conditions: mean of both orientations
T15 chain: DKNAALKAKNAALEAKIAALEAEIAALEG

4H918-AA = target: T16, 4H918-AA; test: two-hybrid library CCmax
T16 chain: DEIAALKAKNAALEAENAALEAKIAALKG

4H3782-AA = target: T17, 4H3782-AA; test: two-hybrid library CCmax; conditions: mean of both orientations
T17 chain: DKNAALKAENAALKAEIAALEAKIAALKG

4H3606-AA = target: T18, 4H3606-AA; test: two-hybrid library CCmax; conditions: mean of both orientations
T18 chain: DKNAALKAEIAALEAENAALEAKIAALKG

4H780-AA = target: T19, 4H780-AA; test: two-hybrid library CCmax; conditions: mean of both orientations
T19 chain: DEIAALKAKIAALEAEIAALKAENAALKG

4H48-AA = target: T20, 4H48-AA; test: two-hybrid library CCmax; conditions: mean of both orientations
T20 chain: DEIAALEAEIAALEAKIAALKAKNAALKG

4H454-AA = target: T21, 4H454-AA; test: two-hybrid library CCmax; conditions: mean of both orientations
T21 chain: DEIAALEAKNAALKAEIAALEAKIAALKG

4H953-AA = target: T22, 4H953-AA; test: two-hybrid library CCmax; conditions: mean of both orientations
T22 chain: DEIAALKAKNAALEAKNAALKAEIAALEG

4H566-AA = target: T23, 4H566-AA; test: two-hybrid library CCmax; conditions: mean of both orientations
T23 chain: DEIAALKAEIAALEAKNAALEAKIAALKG

4H797-AA = target: T24, 4H797-AA; test: two-hybrid library CCmax; conditions: mean of both orientations
T24 chain: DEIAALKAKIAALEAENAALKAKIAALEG

4H3427-AA = target: T25, 4H3427-AA; test: two-hybrid library CCmax
T25 chain: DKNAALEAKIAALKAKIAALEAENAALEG

4H906-AA = target: T26, 4H906-AA; test: two-hybrid library CCmax; conditions: mean of both orientations
T26 chain: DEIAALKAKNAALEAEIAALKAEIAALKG

4H3855-AA = target: T27, 4H3855-AA; test: two-hybrid library CCmax; conditions: mean of both orientations
T27 chain: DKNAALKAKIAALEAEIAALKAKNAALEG

4H429-AA = target: T28, 4H429-AA; test: two-hybrid library CCmax; conditions: mean of both orientations
T28 chain: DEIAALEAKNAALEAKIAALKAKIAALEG

4H3298-bN = target: T29, 4H3298-bN; test: two-hybrid library CCNG1
T29 chain: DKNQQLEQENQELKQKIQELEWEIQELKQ

4H3175-bN = target: T30, 4H3175-bN; test: two-hybrid library CCNG1
T30 chain: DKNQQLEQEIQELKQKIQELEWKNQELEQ

4H3414-bN = target: T31, 4H3414-bN; test: two-hybrid library CCNG1
T31 chain: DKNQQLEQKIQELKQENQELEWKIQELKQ

4H591-bN = target: T32, 4H591-bN; test: two-hybrid library CCNG1
T32 chain: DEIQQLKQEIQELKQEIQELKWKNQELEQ

4H626-bN = target: T33, 4H626-bN; test: two-hybrid library CCNG1
T33 chain: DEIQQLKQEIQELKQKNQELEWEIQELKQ

4H3462-bN = target: T34, 4H3462-bN; test: two-hybrid library CCNG1
T34 chain: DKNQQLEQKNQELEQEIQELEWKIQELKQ

4H3277-bN = target: T35, 4H3277-bN; test: two-hybrid library CCNG1
T35 chain: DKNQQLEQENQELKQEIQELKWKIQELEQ

4H3613-bN = target: T36, 4H3613-bN; test: two-hybrid library CCNG1
T36 chain: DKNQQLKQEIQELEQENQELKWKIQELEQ

4H3497-bN = target: T37, 4H3497-bN; test: two-hybrid library CCNG1
T37 chain: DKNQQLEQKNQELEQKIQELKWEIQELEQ

4H3926-bN = target: T38, 4H3926-bN; test: two-hybrid library CCNG1
T38 chain: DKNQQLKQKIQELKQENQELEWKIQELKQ

4H3628-bN = target: T39, 4H3628-bN; test: two-hybrid library CCNG1
T39 chain: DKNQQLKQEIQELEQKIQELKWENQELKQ

4H906-bN = target: T40, 4H906-bN; test: two-hybrid library CCNG1
T40 chain: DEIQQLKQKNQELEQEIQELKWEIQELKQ

- interaction score (4H717-AA): -1.29
- interaction score (4H678-AA): -1.47
- interaction score (4H568-AA): -0.257
- interaction score (4H794-AA): -1.26
- interaction score (4H993-AA): -1.24
- interaction score (4H967-AA): -1.59
- interaction score (4H881-AA): -1.68
- interaction score (4H605-AA): -1.66
- interaction score (4H883-AA): -1.7
- interaction score (4H3655-AA): 0.589
- interaction score (4H3627-AA): -0.773
- interaction score (4H3844-AA): 0.482
- interaction score (4H687-AA): -1.62
- interaction score (4H3921-AA): -1.79
- interaction score (4H4001-AA): -1.06
- interaction score (4H918-AA): -1.2
- interaction score (4H3782-AA): -0.991
- interaction score (4H3606-AA): -0.74
- interaction score (4H780-AA): -1.61
- interaction score (4H48-AA): 1.18
- interaction score (4H454-AA): -0.567
- interaction score (4H953-AA): -1.66
- interaction score (4H566-AA): -1.35
- interaction score (4H797-AA): -1.46
- interaction score (4H3427-AA): -0.802
- interaction score (4H906-AA): -1.69
- interaction score (4H3855-AA): -1.01
- interaction score (4H429-AA): -1.37
B1: 4H3427-AA (peptide)
chain: DKNAALEAKIAALKAKIAALEAENAALEG

- interaction score (4H3298-bN): -0.312
- interaction score (4H3175-bN): 0.818
- interaction score (4H3414-bN): -0.633
- interaction score (4H591-bN): -0.0622
- interaction score (4H626-bN): -0.521
- interaction score (4H3462-bN): -0.773
- interaction score (4H3277-bN): 0.658
- interaction score (4H3613-bN): -0.132
- interaction score (4H3497-bN): -0.279
- interaction score (4H3926-bN): -0.72
- interaction score (4H3628-bN): -0.511
- interaction score (4H906-bN): -1.02
B2: 4H3175-bN (peptide)
chain: DKNQQLEQEIQELKQKIQELEWKNQELEQ
